Data taken from the supplement of paper PMC5998384.

Columns and labels:
HeLa Kyoto [1] = test: solubility change mitosis vs G1/S (difference of NP-40 vs SDS log2 ratios) (log2 ratio difference); higher = more soluble in mitosis
HeLa Kyoto [2] = test: melting temperature (median over replicates), in situ; higher = more thermally stable
HeLa Kyoto [3] = test: solubility in G1/S (NP-40 vs SDS abundance) (log2 ratio); higher = more soluble; conditions: cell cycle stage: G1/S
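For melting temperature (median over replicates), in situ in this document: HeLa Kyoto cells synchronized by double thymidine or nocodazole block, proteins quantified by TMT10plex mass spectrometry, three independent biological replicates.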
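For solubility change mitosis vs G1/S (difference of NP-40 vs SDS log2 ratios) in this document: synchronized HeLa Kyoto cells (double thymidine block for G1/S, nocodazole release for mitosis), protein amounts in NP-40 versus SDS lysates quantified by mass spectrometry, three biological replicates.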
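For solubility in G1/S (NP-40 vs SDS abundance) in this document: HeLa Kyoto cells arrested at G1/S by double thymidine block, proteins quantified by TMT10plex mass spectrometry in mild NP-40 versus SDS extracts, three biological replicates.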

MARK1, sequence (chain, as listed by the source): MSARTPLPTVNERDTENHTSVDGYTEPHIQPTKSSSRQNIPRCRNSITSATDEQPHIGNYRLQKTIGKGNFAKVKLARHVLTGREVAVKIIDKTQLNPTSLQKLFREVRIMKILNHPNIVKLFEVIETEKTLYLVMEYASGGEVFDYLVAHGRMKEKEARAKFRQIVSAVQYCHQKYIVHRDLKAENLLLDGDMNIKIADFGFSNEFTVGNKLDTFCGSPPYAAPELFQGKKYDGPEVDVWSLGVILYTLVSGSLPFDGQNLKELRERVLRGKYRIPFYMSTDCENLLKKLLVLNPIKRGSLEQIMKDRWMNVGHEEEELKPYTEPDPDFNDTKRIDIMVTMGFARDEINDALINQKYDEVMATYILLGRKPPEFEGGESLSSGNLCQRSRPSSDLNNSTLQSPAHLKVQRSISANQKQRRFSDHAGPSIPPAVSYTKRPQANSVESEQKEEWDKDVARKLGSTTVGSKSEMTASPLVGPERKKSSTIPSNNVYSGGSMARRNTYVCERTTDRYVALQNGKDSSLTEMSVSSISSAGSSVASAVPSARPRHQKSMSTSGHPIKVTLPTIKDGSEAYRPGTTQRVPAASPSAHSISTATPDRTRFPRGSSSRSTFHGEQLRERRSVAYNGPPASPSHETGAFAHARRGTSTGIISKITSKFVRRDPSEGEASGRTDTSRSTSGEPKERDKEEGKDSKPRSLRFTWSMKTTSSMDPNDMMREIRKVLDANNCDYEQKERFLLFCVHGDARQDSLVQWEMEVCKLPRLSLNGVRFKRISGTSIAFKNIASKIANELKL

| Substance | solubility change mitosis (log2) (HeLa Kyoto [1]) | melting temperature (HeLa Kyoto [2]; cell cycle stage: G1/S) | melting temperature (HeLa Kyoto [2]; cell cycle stage: mitosis) | solubility in G1/S (log2) (HeLa Kyoto [3]) |
| --- | --- | --- | --- | --- |
| MAQEEEDVRDYNLTEEQKAIKAKYPPVNRKYEYLDHTADVQLHAWGDTLEEAFEQCAMAMFGYMTDTGTVEPLQTVEVETQGDDLQSLLFHFLDEWLYKFSADEFFIPREVKVLSIDQRNFKLRSIGWGEEFSLSKHPQGTEVKAITYSAMQVYNEENPEVFVIIDI [ZBTB8OS] | 0.0908 | 52.6 °C | 53.1 °C | 0.153 |
| MAQGWAGFSEEELRRLKQTKDPFEPQRRLPAKKSRQQLQREKALVEQSQKLGLQDGSTSLLPEQLLSAPKQRVNVQKPPFSSPTLPSHFTLTSPVGDGQPQGIESQPKELGLENSHDGHNNVEILPPKPDCKLEKKKVELQEKSRWEVLQQEQRLMEEKNKRKKALLAKAIAERSKRTQAETMKLKRIQKELQALDDMVSADIGILRNRIDQASLDYSYARKRFDRAEAEYIAAKLDIQRKTEIKEQLTEHLCTIIQQNELRKAKKLEELMQQLDVEADEETLELEVEVERLLHEQEVESRRPVVRLERPFQPAEESVTLEFAKENRKCQEQAVSPKVDDQCGNSSSIPFLSPNCPNQEGNDISAALAT [GORAB] | 0.118 |  | 50.9 °C | 0.431 |
| MAQQANVGELLAMLDSPMLGVRDDVTAVFKENLNSDRGPMLVNTLVDYYLETSSQPALHILTTLQEPHDKHLLDRINEYVGKAATRLSILSLLGHVIRLQPSWKHKLSQAPLLPSLLKCLKMDTDVVVLTTGVLVLITMLPMIPQSGKQHLLDFFDIFGRLSSWCLKKPGHVAEVYLVHLHASVYALFHRLYGMYPCNFVSFLRSHYSMKENLETFEEVVKPMMEHVRIHPELVTGSKDHELDPRRWKRLETHDVVIECAKISLDPTEASYEDGYSVSHQISARFPHRSADVTTSPYADTQNSYGCATSTPYSTSRLMLLNMPGQLPQTLSSPSTRLITEPPQATLWSPSMVCGMTTPPTSPGNVPPDLSHPYSKVFGTTAGGKGTPLGTPATSPPPAPLCHSDDYVHISLPQATVTPPRKEERMDSARPCLHRQHHLLNDRGSEEPPGSKGSVTLSDLPGFLGDLASEEDSIEKDKEEAAISRELSEITTAEAEPVVPRGGFDSPFYRDSLPGSQRKTHSAASSSQGASVNPEPLHSSLDKLGPDTPKQAFTPIDLPCGSADESPAGDRECQTSLETSIFTPSPCKIPPPTRVGFGSGQPPPYDHLFEVALPKTAHHFVIRKTEELLKKAKGNTEEDGVPSTSPMEVLDRLIQQGADAHSKELNKLPLPSKSVDWTHFGGSPPSDEIRTLRDQLLLLHNQLLYERFKRQQHALRNRRLLRKVIKAAALEEHNAAMKDQLKLQEKDIQMWKVSLQKEQARYNQLQEQRDTMVTKLHSQIRQLQHDREEFYNQSQELQTKLEDCRNMIAELRIELKKANNKVCHTELLLSQVSQKLSNSESVQQQMEFLNRQLLVLGEVNELYLEQLQNKHSDTTKEVEMMKAAYRKELEKNRSHVLQQTQRLDTSQKRILELESHLAKKDHLLLEQKKYLEDVKLQARGQLQAAESRYEAQKRITQVFELEILDLYGRLEKDGLLKKLEEEKAEAAEAAEERLDCCNDGCSDSMVGHNEEASGHNGETKTPRPSSARGSSGSRGGGGSSSSSSELSTPEKPPHQRAGPFSSRWETTMGEASASIPTTVGSLPSSKSFLGMKARELFRNKSESQCDEDGMTSSLSESLKTELGKDLGVEAKIPLNLDGPHPSPPTPDSVGQLHIMDYNETHHEHS [TSC1] | -0.187 | 50.2 °C | 50.7 °C | 0.0426 |
| MAQVLHVPAPFPGTPGPASPPAFPAKDPDPPYSVETPYGYRLDLDFLKYVDDIEKGHTLRRVAVQRRPRLSSLPRGPGSWWTSTESLCSNASGDSRHSAYSYCGRGFYPQYGALETRGGFNPRVERTLLDARRRLEDQAATPTGLGSLTPSAAGSTASLVGVGLPPPTPRSSGLSTPVPPSAGHLAHVREQMAGALRKLRQLEEQVKLIPVLQVKLSVLQEEKRQLTVQLKSQKFLGHPTAGRGRSELCLDLPDPPEDPVALETRSVGTWVRERDLGMPDGEAALAAKVAVLETQLKKALQELQAAQARQADPQPQAWPPPDSPVRVDTVRVVEGPREVEVVASTAAGAPAQRAQSLEPYGTGLRALAMPGRPESPPVFRSQEVVETMCPVPAAATSNVHMVKKISITERSCDGAAGLPEVPAESSSSPPGSEVASLTQPEKSTGRVPTQEPTHREPTRQAASQESEEAGGTGGPPAGVRSIMKRKEEVADPTAHRRSLQFVGVNGGYESSSEDSSTAENISDNDSTENEAPEPRERVPSVAEAPQLRPAGTAAAKTSRQECQLSRESQHIPTAEGASGSNTEEEIRMELSPDLISACLALEKYLDNPNALTERELKVAYTTVLQEWLRLACRSDAHPELVRRHLVTFRAMSARLLDYVVNIADSNGNTALHYSVSHANFPVVQQLLDSGVCKVDKQNRAGYSPIMLTALATLKTQDDIETVLQLFRLGNINAKASQAGQTALMLAVSHGRVDVVKALLACEADVNVQDDDGSTALMCACEHGHKEIAGLLLAVPSCDISLTDRDGSTALMVALDAGQSEIASMLYSRMNIKCSFAPMSDDESPTSSSAEE [KANK2] | -0.0916 | 46.7 °C |  | -0.0486 |
| MARGQQKIQSQQKNAKKQAGQKKKQGHDQKAAAKAALIYTCTVCRTQMPDPKTFKQHFESKHPKTPLPPELADVQA [ZNF706] | 0.171 | 57.5 °C | 54.1 °C | -0.28 |
| MARK1 | -0.0417 |  | 49 °C | -0.155 |
| MASKGPSASASPENSSAGGPSGSSNGAGESGGQDSTFECNICLDTAKDAVISLCGHLFCWPCLHQWLETRPNRQVCPVCKAGISRDKVIPLYGRGSTGQQDPREKTPPRPQGQRPEPENRGGFQGFGFGDGGFQMSFGIGAFPFGIFATAFNINDGRPPPAVPGTPQYVDEQFLSRLFLFVALVIMFWLLIA [RNF185] | -0.146 | 53.4 °C |  | 0.352 |
| MASKLLRAVILGPPGSGKGTVCQRIAQNFGLQHLSSGHFLRENIKASTEVGEMAKQYIEKSLLVPDHVITRLMMSELENRRGQHWLLDGFPRTLGQAEALDKICEVDLVISLNIPFETLKDRLSRRWIHPPSGRVYNLDFNPPHVHGIDDVTGEPLVQQEDDKPEAVAARLRQYKDVAKPVIELYKSRGVLHQFSGTETNKIWPYVYTLFSNKITPIQSKEAY [AK4] | 0.0928 |  | 51.3 °C | 0.384 |
